Test results reported in patent US20110245167A1.

Biological target: Recombinant human Src expressed in Sf9 insect cells (purified recombinant full-length Src from Upstate Biotechnology) (human) (UniProt P12931)
Experiment: cell-based or functional assay

IC50 of Src inhibition (pY418): 50 nM
Substance: GST-ND1 (amino acid residue 379-435 of pig kidney Na/K-ATPase α1 subunit) (from UniProt P05023 381-439)
